Results on 20 sequences are retold here after the DeepSol protein solubility set.

The data set can be described thus: soluble on expression in E. coli; label from the status in PepcDB or PDB records.
Take “MGSSHHHHHHSSGLVPRGSHMVESKNTELSQGTWLNKPKSVFQEAGKVTLETDEKTDFWRETFYGFTRDSGHFLGVETGSAFTAQVRVQGSYESLYDQAGIMVRIDDGHWLKAGIEISDGHAMLSSVLTNGKSDWSTAVYGGNARDFWLRVTVEKGVLRIQVSSDKKTWPLVRLAPFPTSDHYLVGPMACTPERGGLKVTFSEWSLTAPLGKALHDLS”: the “soluble on expression in E. coli” value is given as “soluble”.
The value for “MGSSHHHHHHSSGLVPRGSRHSTLDFMLGAKADGETILKGLQSIFQEQGMAESVHTWQDHGYLATYTNKNGSFANLRIYPHGLVLLDLQSYDGDAQGKEEIDSILNKVEERMKELSQDSTGRVKRLPPIVRGGAIDRYWPTADGRLVEYDIDEVVYDEDSPYQNIKILHSKQFGNILILSGDVNLAESDLAYTRAIMGSGKEDYTGKDVLILGGGDGGILCEIVKLKPKMVTMVEIDQMVIDGCKKYMRKTCGDVLDNLKGDCYQVLIEDCIPVLKRYAKEGREFDYVINDLTAVPISTSPEEDSTWEFLRLILDLSMKVLKQDGKYFTQGNCVNLTEALSLYEEQLGRLYCPVEFSKEIVCVPSYLELWVFYTVWKKAKP” was “soluble”.
The value for “MGSSHHHHHHSSGLVPRGSTSEVIEDEKQFYSKAKTYWKQIPPTVDGMLGGYGHISSIDINSSRKFLQRFLREGPNKTGTSCALDCGAGIGRITKRLLLPLFREVDMVDITEDFLVQAKTYLGEEGKRVRNYFCCGLQDFTPEPDSYDVIWIQWVIGHLTDQHLAEFLRRCKGSLRPNGIIVIKDNMAQEGVILDDVDSSVCRDLDVVRRIICSAGLSLLAEERQENLPDEIYHVYSFALR” was “soluble”.
Next, “MGSSHHHHHHSSGRENLYFQGHMIPEHLSIYTAYNANIAAIVKLNQETIQNLINAFDPDEVKRRIEEYPREINEPIDFVARLVHTLKLGKPAAVPLVNEKMNEWFDKTFRYEEERLGGQAGIIANTLAGLKIRKVIAYTPFLPKRLAELFKKGVLYPVVENGELQFKPIQEAYREGDPLKINRIFEFRKGLKFKLGDETIEIPNSGRFIVSARFESISRIETREDIKPFLGEIGKEVDGAIFSGYQGLRTKYSDGKDANYYLRRAKEDIIEFKEKDVKIHVEFASVQDRKLRKKIITNILPFVDSVGIDEAEIAQILSVLGYRELADRIFTYNRLEDSILGGMIILDELNFEILQVHTTYYLMYITHRDNPLSEEELAKSLEFGTTLAAARASLGDIRGPDDYKVGLKVPFNERSEYVKLRFEEAKSRLRMREYKVVVIPTRLVQNPVLTVGLGDTISAGAFLTYLEFLKRHGS”: “soluble”; “MGSSHHHHHHSSGRENLYFQGHMSCTTDKLIQKYDALVRKTTEHKFAKELCAGTLKDRSLYIYLSQDLQFFETSLRLICKTTSLAPTTHALITLAKKIGFFSNDENSYFHDCLELLAPSLTKEERDNFDNKAIPGVDAYINFLDELRKDASITWPSLVTSLWVAEELYWRWARDTPRAPGLHWKYQKWIDLHDGEHFQTWCEFLKAEVDKFPVEEVESIFVKVSQFEFEFFESCYNA”: “soluble”.
Consider “MGTPQGKLKTINGVGKIEDFASTKAKMRVRYPLLITFNYWVLYKSPDKSWFISANPSTEDVWVYARSVPSKAKLNRMMMKVRELGYDVKKLEFPLEHHHHHH”, for which the “soluble on expression in E. coli” value was “not soluble”.
The value for “MGTSSFTFPGFYRAKNMRSPECLDLLDSMNHFILHCHWEHADLNRTSLTERKRLGSKYEYENWFEEKRENSGTKFIKRSSSSKEIHYNCALVTNGDNRQFKKSKKLDQYCASGKVQFHDSGSVDVLGCCSHAGHDT” was “not soluble”; that for “MGVMESGRPPAKPRERVFVGGCLHAGMDHDTAGRTSRQILDAVGSAVIADDHFLETVMTGILARGHVLLEDVPGTGKTLTAQSFATALDLSFKRVQFTPDLLPSDITGSNVFNEATGEFDFQPGPVFANVVLADEINRAPPKTQAALLEAMGEKQVTVDGVTHDLPEPFFVIATQNPVEQEGTFGLPEAQRDRFIVKTSMGYPDFGGERELIDRRADRTAQAPSVTSVIDGERLPALQRTVESVTVDGTLRDYVVELGRATREDDRVDVGVSPRGIQRLFEATRAAAVLDGRDYAVPDDVKTVVEEAFAHRLVLTADAGVRGVDPATVVDDVLDRVEVPAVSPLEHHHHHH” was “not soluble”.
“MGYLKNHWWKRWIRRRGCKLAGGPASVGKRTTLVLEERVELGHLRIVPPRLEIGAYSYVRSGTDLSLVASIGRFCSIGSDCFIGQEKHTHPSDWVSSHPFQHTGTALRYEPALSYAEIGHDVWIGHSAMVMEGVKVGTGAIIATRAVVTRDVPPYAIVAGTPAQVIRYRHPPEIIEGLLASRWWELDSAFLTGLPLDRPREFLAALEAREAPRAAYRRMTITRQGCRLD”: the “soluble on expression in E. coli” value is listed as “not soluble”.
The value for “MGYNKPAAWKPLDRTDWDVSFSYAYGYDEAQFGGRLAVDGDVSTTWFTWGVVSAGECWWATTLPAPTHLTGFSLTRQTTFGSSYNVREAKVKVKKEGDTEWTEAGLFRFGSFKGNDPQYAVFIPAVENVKEFRIDIVSPADFTGFAELDLYQLEHHHHHH” was “soluble”.
Next, “MGYTVAVVGATGAVGAQMIKMLEESTLPIDKIRYLASARSAGKSLKFKDQDITIEETTETAFEGVDIALFSAGSSTSAKYAPYAVKAGVVVVDNTSYFRQNPDVPLVVPEVNAHALDAHNGIIACPNCSTIQMMVALEPVRQKWGLDRIIVSTYQAVSGAGMGAILETQRELREVLNDGVKPRDLHAEILPSGGDKKHYPIAFNALPQIDVFTDNDYTYEEMKMTKETKKIMEDDSIAVSATCVRIPVLSAHSESVYIETKEVAPIEEVKAAIAAFPGAVLEDDVAHQIYPQAINAVGSRDTFVGRIRKDLDAEKGIHMWVVSDNLLKGAAWNSVQIAETLHERGLVRPTAELKFELK”: “soluble”; “MHEYSIVSALIEQCEQYAKANQATKVTRVEIKLGVMSGVEPALLQTAFETFKLDGICREAKLCMTLQPLVIKCADCQQESVLDERSIVCPACNSYHTRVLDGEEMLLMQLEMEQAEDA”: “soluble”.
In the case of “MHGRLKVKTSEEQAEAKRLEREQKLKLYQSATQAVFQKRQAGELDESVLELTSQILGANPDFATLWNCRREVLQHLETEKSPEESAALVKAELGFLESCLRVNPKSYGTWHHRCWLLSRLPEPNWARELELCARFLEADERNFHCWDYRRFVAAQAAVAPAEELAFTDSLITRNFSNYSSWHYRSCLLPQLHPQPDSGPQGRLPENVLLKELELVQNAFFTDPNDQSAWFYHRWLLGRAEPHDVLCCVHVSREEACLSVCFSRPLTVGSRMGTLLLMVDEAPLSVEWRTPDGRNRPSHVWLCDLPAASLNDQLPQHTFRVIWTGSDSQKECVLLKDRPECWCRDSATDEQLFRCELSVEKSTVLQSELESCKELQELEPENKWCLLTIILLMRALDPLLYEKETLQYFSTLKAVDPMRAAYLDDLRSKFLLENSVLKMEYADVRVLHLAHKDLTVLCHLEQLLLVTHLDLSHNRLRALPPALAALRCLEVLQASDNALENVDGVANLPRLQELLLCNNRLQQSAAIQPLVSCPRLVLLNLQGNSLCQEEGIQERLAEMLPSVSSILT”, the “soluble on expression in E. coli” value was “soluble”.
Regarding “MHHHHHHAIGYVWNTLYGWVDTGTGSLAAANLTARMQPISHHLAHPDTKRRFHELVCASGQIEHLTPIAAVAATDADILRAHSAAHLENMKRVSNLPTGGDTGDGITMMGNGGLEIARLSAGGAVELTRRVATGELSAGYALVNPPGHHAPHNAAMGFCIFNNTSVAAGYARAVLGMERVAILDWDVHHGNGTQDIWWNDPSVLTISLHQHLCFPPDSGYSTERGAGNGHGYNINVPLPPGSGNAAYLHAMDQVVLPALRAYRPQLIIVGSGFDASMLDPLARMMVTADGFRQMARRTIDCAADICDGRIVFVQEGGYSPHYLPFCGLAVIEELTGVRSLPDPYHEFLAGMGGNTLLDAERAAIEEIVPLLADIR”, the “soluble on expression in E. coli” value is given as “soluble”.
Next, “MHHHHHHAMGTKKSAAEASKKPRQKRTATKQYNVTQAFGRRGPEQTQGNFGDQDLIRQGTDYKHWPQIAQFAPSASAFFGMSRIGMEVTPSGTWLTYHGAIKLDDKDPQFKDNVILLNKHIDAYKTFP”: “soluble”; “MHHHHHHENLYFQGSTSENITQKVVWVEESDKRSFLLDLLNATGKDSLTLVFVETKKGADSLEDFLYHEGYACTSIHGDRSQRDREEALHQFRSGKSPILVATAVAARGLDISNVKHVINFDLPSDIEEYVHRIGRTGRVGNLGLATSFFNERNINITKDLLDLLVEAKQEVPSWLENMAYEHHY”: “soluble”; “MHHHHHHMMSETAEKAIEIWKIRRLVKQLINCHGNGTSMITLIIPPGEQISRYSNMLAEEYGTASNIKSRVNRLSVLSAITSTRERLKLYNKVPDNGLVIYCGEVIMEGNKTRKLNIDFEPFKPINTSQYLCDNKFHTEALAELLESDQRFGFIVMDGHQTLYGVVSGSAREVLQRFTVDLPKKHGRGGQSALRFARLRDEKRHNYVRKVAEGAVQHFITDDKPNVAGIVLAGSADFKTELGQSDLFDQRLQSRIIKTVDVSYGGDAGFNQAIELAADTLSNVKYVQEKKLIQRFFDEISLDSGKYCFGVVDTMNALQEGAVETLLCFADLDMIRYEFKNSEGNPVITYMTKEQEEKDSTNSFLLDKDTGAEMELVSSMLLSEWLAEHYKDYGANLEFVSDRSQEGMQFVKGFGGIGAVMRYQLDLSMLDPESDEFYSDSD”: “soluble”.
The value for “MHHHHHHSSGRENLYFQGTIDDLFIFKRKLGSGAFGDVHLVEERSSGLERVIKTINKDRSQVPMEQIEAEIEVLKSLDHPNIIKIFEVFEDYHNMYIVMETCEGGELLERIVSAQARGKALSEGYVAELMKQMMNALAYFHSQHVVHKDLKPENILFQDTSPHSPIKIIDFGLAELFKSDEHSTNAAGTALYMAPEVFKRDVTFKCDIWSAGVVMYFLLTGCLPFTGTSLEEVQQKATYKEPNYAVECRPLTPQAVDLLKQMLTKDPERRPSAAQVLHHEWFKQA” was “soluble”.
For “MHHHHHHSSGVDLGTENLYFQSMKIAVIGQSLFGQEVYCHLRKEGHEVVGVFTVPDKDGKADPLGLEAEKDGVPVFKYSRWRAKGQALPDVVAKYQALGAELNVLPFCSQFIPMEIISAPRHGSIIYHPSLLPRHRGASAINWTLIHGDKKGGFSIFWADDGLDTGDLLLQKECEVLPDDTVSTLYNRFLFPEGIKGMVQAVRLIAEGKAPRLPQPEEGATYEGIQKKETAKINWDQPAEAIHNWIRGNDKVPGAWTEACEQKLTFFNSTLNTSGLVPEGDALPIPGAHRPGVVTKAGLILFGNDDKMLLVKNIQLEDGKMILASNFFK”, the “soluble on expression in E. coli” value is given as “soluble”.
The value for “MHHHHHHSSGVDLGTENLYFQSMMQKLVVTRLSPNFREAVTLSRDCPVPLPGDGDLLVRNRFVGVNASDINYSAGRYDPSVKPPFDIGFEGIGEVVALGLSASARYTVGQAVAYMAPGSFAEYTVVPASIATPVPSVKPEYLTLLVSGTTAYISLKELGGLSEGKKVLVTAAAGGTGQFAMQLSKKAKCHVIGTCSSDEKSAFLKSLGCDRPINYKTEPVGTVLKQEYPEGVDVVYESVGGAMFDLAVDALATKGRLIVIGFISGYQTPTGLSPVKAGTLPAKLLKKSASVQGFFLNHYLSKYQAAMSHLLEMCVSGDLVCEVDLGDLSPEGRFTGLESIFRAVNYMYMGKNTGKIVVELPH” was “soluble”.
